Two molecules from paper PMC7181197 can be followed below.

The target of series [1] is GFP-G3BP1(S149A) (UniProt Q13283 1-466, S149A). Briefly: EMSA.
Series [2] concerns the target GFP-G3BP1(WT);mCherry-Caprin-1 (human?;human?, UniProt Q13283;Q14444 1-466;1-709, |). Briefly: EMSA.
Series [3] addresses T1, GFP-G3BP1(WT) (UniProt Q13283 1-466). The series can be described thus: EMSA.
Series [4] concerns the target T1, GFP-G3BP1(WT). The series can be described thus: analytical size exclusion chromatography.

T1 sequence (Q13283 whole entry): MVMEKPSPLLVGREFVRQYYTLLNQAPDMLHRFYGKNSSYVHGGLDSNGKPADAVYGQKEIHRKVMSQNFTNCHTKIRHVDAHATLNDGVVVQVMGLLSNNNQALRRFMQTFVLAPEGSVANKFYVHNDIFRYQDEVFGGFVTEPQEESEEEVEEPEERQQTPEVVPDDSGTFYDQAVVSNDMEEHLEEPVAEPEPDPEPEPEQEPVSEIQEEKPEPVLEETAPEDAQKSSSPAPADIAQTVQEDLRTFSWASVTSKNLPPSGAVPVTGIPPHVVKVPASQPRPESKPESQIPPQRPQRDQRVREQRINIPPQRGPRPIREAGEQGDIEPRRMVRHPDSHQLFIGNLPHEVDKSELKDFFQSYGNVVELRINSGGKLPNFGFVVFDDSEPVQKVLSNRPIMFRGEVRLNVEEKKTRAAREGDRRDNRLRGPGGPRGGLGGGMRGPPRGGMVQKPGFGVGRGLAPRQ
GFP-G3BP1(WT);mCherry-Caprin-1, sequence (Q13283 whole entry, chain 1 of 2): as the sequence (Q13283 whole entry) above
GFP-G3BP1(WT);mCherry-Caprin-1, sequence (Q14444 whole entry, chain 2 of 2): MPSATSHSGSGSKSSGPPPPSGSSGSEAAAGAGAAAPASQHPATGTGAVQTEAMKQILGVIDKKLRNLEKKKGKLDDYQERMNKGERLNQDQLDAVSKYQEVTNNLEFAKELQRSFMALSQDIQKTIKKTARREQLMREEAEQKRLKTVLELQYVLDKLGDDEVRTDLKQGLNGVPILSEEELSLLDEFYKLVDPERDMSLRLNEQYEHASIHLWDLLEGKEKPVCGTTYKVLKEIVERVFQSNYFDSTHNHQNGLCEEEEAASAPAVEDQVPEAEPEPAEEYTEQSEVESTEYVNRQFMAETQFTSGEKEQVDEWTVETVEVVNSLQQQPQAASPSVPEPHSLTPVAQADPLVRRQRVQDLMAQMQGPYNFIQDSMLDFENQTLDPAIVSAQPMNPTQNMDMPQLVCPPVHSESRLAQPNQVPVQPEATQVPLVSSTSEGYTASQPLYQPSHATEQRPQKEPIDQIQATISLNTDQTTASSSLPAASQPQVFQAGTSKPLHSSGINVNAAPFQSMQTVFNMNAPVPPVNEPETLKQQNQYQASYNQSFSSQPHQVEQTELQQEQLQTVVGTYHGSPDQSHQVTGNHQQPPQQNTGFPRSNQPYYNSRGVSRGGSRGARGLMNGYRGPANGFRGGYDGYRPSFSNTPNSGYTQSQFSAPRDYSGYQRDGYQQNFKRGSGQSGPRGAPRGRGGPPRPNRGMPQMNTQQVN
GFP-G3BP1(S149A), sequence (Q13283 whole entry S149A): as the sequence (Q13283 whole entry) above, with S149A counted along it

B1: A(60)-Cy5 RNA (ssRNA)
RNA: AAAAAAAAAAAAAAAAAAAAAAAAAAAAAAAAAAAAAAAAAAAAAAAAAAAAAAAAAAAA
modifications: 3' pCp-Cy5 ligated (adds one 3' C)
Consider B1, for which the Kd in series [1] is around 1900 nM; in series [3], around 2000 nM. Moreover, the binding result in series [2] is “binds”.

B2: A(60) RNA unlabeled (ssRNA)
RNA: B1 RNA
As for B2, the binding result in series [4] was “binds”.
